Data set [1] has as its target T1, human MMP-9 (hMMP-9) (Homo sapiens, UniProt P14780 107-457). Briefly: AuNS aggregation by strand displacement.
Data set [2] deals with T1, human MMP-9 (hMMP-9). The experiment in a line: AuNS aggregation by strand displacement. The source holds these as a separate data set.

Like-named read-outs stand apart in the source and are kept apart here.

T1 sequence (P14780 107-457): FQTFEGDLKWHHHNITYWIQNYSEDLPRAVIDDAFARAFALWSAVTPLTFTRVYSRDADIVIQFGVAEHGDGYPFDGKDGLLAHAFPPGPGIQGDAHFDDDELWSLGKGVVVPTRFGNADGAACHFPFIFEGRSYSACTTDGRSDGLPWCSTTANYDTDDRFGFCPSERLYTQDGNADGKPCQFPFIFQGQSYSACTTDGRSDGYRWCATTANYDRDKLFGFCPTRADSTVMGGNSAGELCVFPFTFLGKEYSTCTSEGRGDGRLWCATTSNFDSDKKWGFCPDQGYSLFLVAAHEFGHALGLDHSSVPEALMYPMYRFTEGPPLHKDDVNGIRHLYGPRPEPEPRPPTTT

B1: control aptamer (annealed to control comp-1 on cAuNS-1; control sensor) (mixed)
DNA 1: CCGGTGTTCGAGACAAGAGTCCAGGG
DNA 2: CTCTCGAACACCGGAA
modifications: 3' ThioMC3-D (thiol) on control comp-1
Turning to B1, the binding result with human MMP-9 (hMMP-9) [1] is “no binding”.

B2: MMP-9 aptamer (annealed to comp-1 on AuNS-1; MMP sensor) (mixed)
DNA 1: TCGTATGGCACGGGGTTGGTGTTGGGTTGG
DNA 2: GGTGTGCCATACGAAA
modifications: 3' ThioMC3-D (thiol) on comp-1
For B2, in the data set with human MMP-9 (hMMP-9) [2], the binding result is recorded as “binds”.

For the origin of these results see paper PMC8521288.
